B1: Hairpin Ribozyme (parent)
chain: GUCCUCUUUCACGUGCGCGUGAAAGAGAGAAGUGAACCAGAGAAACACACGUUGUGGUAUAUUACCUGGUA

Variants of: B1
Assay: self-cleavage, relative activity (ratio to wild type); higher = more cleavage; co-transcriptional

| Variant | self-cleavage |
| --- | --- |
| U2A U60C | 0.542 |
| U2A U60G | 0.222 |
| G1C U5G | 0.237 |
| G1C U5A | 0.133 |
| U2A G42A | 0.107 |
| G1U U20C | 0.203 |
| G1U U20G | 0.0885 |
| G1C U58C | 0.16 |
| G1C A64C | 0.186 |
| G1U A39U | 0.0669 |
| G1U A39C | 0.118 |
| U2A U58G | 0.161 |
| U2A U58C | 0.21 |
| U2C U70C | 0.16 |
| U2C U70G | 0.269 |
| U2A A24C | 0.134 |
| U2G G40A | 0.105 |
| U2C G27C | 0.153 |
| G1U A71U | 0.167 |
| G1U A30U | 0.162 |
| G1U A30C | 0.178 |
| U2C A39U | 0.249 |
| G1U U52G | 0.143 |
| U2C C10U | 0.159 |

| Variant | self-cleavage |
| --- | --- |
| U2C C10G | 0.118 |
| U2C C10A | 0.117 |
| U2A G68C | 0.154 |
| U2G A26G | 0.277 |
| U2C G54C | 0.127 |
| U2C U58C | 0.175 |
| G1C U20A | 0.175 |
| U2G G19U | 0.336 |
| U2C C37A | 0.0991 |
| G1U G19U | 0.134 |
| G1U G19C | 0.105 |
| U2A G54A | 0.143 |
| U2A G54C | 0.145 |
| U2C U55C | 0.0641 |
| U2C U55G | 0.0647 |
| G1U U9A | 0.115 |
| G1U A31C | 0.0695 |
| G1U A31G | 0.0331 |
| U2A A22U | 0.208 |
| G1C U67G | 0.0946 |
| U2C A64G | 0.123 |
| U2G G34C | 0.736 |
| U2C A11G | 0.172 |
| U2A A35U | 0.174 |

| Variant | self-cleavage |
| --- | --- |
| U2A A35C | 0.374 |
| U2A A35G | 0.225 |
| G1U A47G | 0.046 |
| G1U A47C | 0.107 |
| U2A C50G | 0.189 |
| G1U G25C | 0.0754 |
| G1U G25A | 0.133 |
| G1U G25U | 0.21 |
| U2A U14A | 0.174 |
| U2A U14G | 0.235 |
| G1U U70G | 0.0694 |
| G1U U70A | 0.111 |
| G1C G21C | 0.378 |
| U2C A24G | 0.154 |
| G1C U52A | 0.0569 |
| U2C G40U | 0.103 |
| U2G A49U | 0.053 |
| U2G G51U | 0.389 |
| U2G G51A | 0.306 |
| U2A A23G | 0.332 |
| U2A G32C | 0.0974 |
| G1U U2C | 0.232 |
| U2C U63C | 0.109 |
| U2C U63G | 0 |

| Variant | self-cleavage |
| --- | --- |
| U2C G29C | 0.16 |
| U2C G29U | 0.0528 |
| U2G C46A | 0.121 |
| G1C C3G | 0.246 |
| U2A G25A | 0.259 |
| U2G A39C | 0.177 |
| G1U C10A | 0.151 |
| G1U C10U | 0.132 |
| U2C A43U | 0.177 |
| U2C A43C | 0.0996 |
| G1C U8G | 0.216 |
| U2A G29U | 0.111 |
| G1U A44U | 0.128 |
| U2G A47U | 0.0492 |
| U2A C37A | 0.161 |
| U2A A61G | 0.106 |
| U2A A61U | 0.159 |
| U2G G27A | 0.139 |
| U2G G27U | 0.172 |
| U2G A71G | 0.307 |
| U2G G69C | 0.0755 |
| G1U A28C | 0.0863 |
| G1U A23G | 0.183 |
| G1U A23C | 0.0726 |

| Variant | self-cleavage |
| --- | --- |
| U2G G13A | 0.338 |
| U2A A28C | 0.258 |
| U2A A28U | 0.136 |
| G1U A45U | 0.228 |
| G1U A45G | 0.0992 |
| G1U A45C | 0.126 |
| U2A A43C | 0.114 |
| G1U A36C | 0.143 |
| G1U G56A | 0.127 |
| U2C C48A | 0.0257 |
| G1U G51U | 0.133 |
| U2A A30C | 0.162 |
| U2G G21A | 0.265 |
| U2C C50U | 0.252 |
| G1U A24C | 0.162 |
| G1U A24G | 0.0236 |
| U2A U62G | 0.088 |
| U2A G69A | 0.215 |
| U2G A31G | 0.281 |
| U2G A31U | 0 |
| U2G A31C | 0.0758 |
| G1U G57U | 0.125 |
| G1U G57C | 0.145 |
| U2C A35U | 0.259 |

| Variant | self-cleavage |
| --- | --- |
| U2C A35G | 0.243 |
| U2A G19U | 0.244 |
| G1C U60G | 0.0347 |
| G1C U60A | 0.123 |
| U2C A49U | 0.141 |
| G1U C3U | 0.255 |
| G1U C18A | 0.157 |
| U2A C16G | 0.156 |
| U2G U5G | 0.0759 |
| U2A G34A | 0.319 |
| U2A G34C | 0.501 |
| U2C C38G | 0.157 |
| U2C A36U | 0.207 |
| U2C A36C | 0.17 |
| U2G C48U | 0.117 |
| G1C G42U | 0.145 |
| G1C G42A | 0.148 |
| U2C G25A | 0.195 |
| U2C G25U | 0.134 |
| U2A A64C | 0.112 |
| U2A C65G | 0.146 |
| U2A A39C | 0.133 |
| U2A A39G | 0.0775 |
| U2C A44C | 0.0731 |

| Variant | self-cleavage |
| --- | --- |
| U2C A44G | 0.275 |
| U2A U55C | 0.153 |
| U2C C65A | 0.195 |
| G1C U63A | 0.194 |
| G1C U63C | 0.285 |
| U2G A41C | 0.566 |
| U2A U7G | 0.197 |
| U2A U7C | 0.273 |
| G1C A71G | 0.313 |
| U2G G29A | 0.168 |
| G1U U5G | 0.194 |
| U2G A64U | 0.0768 |
| G1U A49C | 0.202 |
| G1U A49U | 0.0947 |
| G1U G42C | 0.0939 |
| G1U G42U | 0.162 |
| G1U G42A | 0.121 |
| U2A U20G | 0.201 |
| U2G A24U | 0.238 |
| U2G A24G | 0.293 |
| U2G A24C | 0.293 |
| G1C G56U | 0.293 |
| U2G G54A | 0.114 |

Reference: the RNAGym collection of RNA variant scans (doi:10.7554/elife.80360)
